# Data taken from US20210380703A1 (RIGEL PHARMACEUTICALS, published 2021).
# Positions count from the first letter of the chain named.
# B1: 368_H06 (antibody, V domains shown)
# VH: EVQLLESGGGLVQPGGSLRLSCAASGFTFDSYGMHWVRQAPGKGLEWVANINYNGGYKSYADSVKGRFTISRDNSKNTLYLQMNSLRAEDTAVYYCARGATWHDTHLDYWGQGTLVTVSS
# VL: DIQMTQSPSSLSASVGDRVTITCRASQSILTYVNWYQQKPGKAPKLLIYATTSRASGVPSRFSGSGSGTDFTLTISSLQPEDFATYYCQQSYDNPLTFGGGTKVEIK
# notes: VH/VL only
# B2: 368_H11 (antibody, V domains shown)
# VH: B1 VH with N50S, K58T
# VL: B1 VL with T31S, V33L, T51A, Y92D, N94T
# notes: VH/VL only
# B3: 369_A11 (antibody, V domains shown)
# VH: B1 VH with H35N, S59G
# VL: B1 VL with L30I, V33L, L47V, T51A, A55H, D93E, N94S
# notes: VH/VL only
# B4: 369_C12 (antibody, V domains shown)
# VH: B1 VH with D30S, H35N, S59G
# VL: B1 VL with V33L, T51A, A55H, N94T
# notes: VH/VL only
# B5: 369_D08 (antibody, V domains shown)
# VH: B1 VH with D30S, S31D, G33S, H35N, N50S, S59G
# VL: B1 VL with V33L, T51A, N94T
# notes: VH/VL only
# B6: 369_E05 (antibody, V domains shown)
# VH: B1 VH with D30S, S31D, H35N
# VL: B1 VL with V33L, T51A, R54L, D93E, N94T
# notes: VH/VL only
# B7: 369_E08 (antibody, V domains shown)
# VH: B1 VH with D30S, G33S, H35N, N50S, G55S, K58T, S59G
# VL: B1 VL with T51A, N94S
# notes: VH/VL only
# B8: 369_F05 (antibody, V domains shown)
# VH: B1 VH with D30S, G33S, H35N, A49S, N50G
# VL: B1 VL with L30S, T31S, V33L, T51A, T52S, R54L, A55Q, S91G, N94S
# notes: VH/VL only
# B9: 369_F09 (antibody, V domains shown)
# VH: B1 VH with D30S, N50G, K58T
# VL: B1 VL with T51A, N94S
# notes: VH/VL only
# B10: 369_G05 (antibody, V domains shown)
# VH: B1 VH with D30S, G33S, H35N, N50G, K58T
# VL: B1 VL with L30V, T31S, V33L, T51A, A55H, N94S
# notes: VH/VL only
# B11: 369_H02 (antibody, V domains shown)
# VH: B1 VH with S31D, G33S, H35N, A49S
# VL: B1 VL with L30I, T31S, V33L, T51A, N94S
# notes: VH/VL only
# B12: 369_H08 (antibody, V domains shown)
# VH: B1 VH with D30S, G33S, H35N, N50G, G55S
# VL: B1 VL with T31S, L47V, T51A, R54L, D93E, N94S
# notes: VH/VL only
# B13: 369_H12 (antibody, V domains shown)
# VH: B1 VH with D30S, G33S, H35N, N50G
# VL: B1 VL with L30V, L47V, T51A, N94S
# notes: VH/VL only
# B14: 370_B08 (antibody, V domains shown)
# VH: B1 VH with D30S, S31D, G33S, H35N, K58T, S59G
# VL: B1 VL with T31S, V33L, T51A, T52S, R54L, A55Q, N94S
# notes: VH/VL only
# B15: 370_C06 (antibody, V domains shown)
# VH: B1 VH with D30S, G33S, H35N
# VL: B1 VL with T51A, T52S, R54L, A55Q, D93S, N94T
# notes: VH/VL only
# B16: 370_C07 (antibody, V domains shown)
# VH: B1 VH with D30S, G33S, H35N
# VL: B1 VL with T31S, V33L, T51A, A55H, D93E, N94S
# notes: VH/VL only
# B17: 370_C10 (antibody, V domains shown)
# VH: B1 VH with G33S, H35N, A49S, G55S, S59G
# VL: B1 VL with L30V, T31S, D93S, N94S
# notes: VH/VL only
# B18: 370_D03 (antibody, V domains shown)
# VH: B1 VH with D30S, G33S, H35N, N50S, K58T
# VL: B1 VL with L30I, V33L, T51A, N94L
# notes: VH/VL only
# B19: 370_D09 (antibody, V domains shown)
# VH: B1 VH with D30S, S31D, G33S, H35N, A49S, N50G, G55S, K58T
# VL: B1 VL with L30V, V33L, L47V, T51A, N94T
# notes: VH/VL only
# B20: 370_E04 (antibody, V domains shown)
# VH: B1 VH with D30S, G33S, H35N, S59G
# VL: B1 VL with V33L, T51V, R54L, A55H, D93E, N94T
# notes: VH/VL only
# B21: 370_E05 (antibody, V domains shown)
# VH: B1 VH with D30S, H35N, A49S, S59G
# VL: B1 VL with L30S, V33L, L47V, T51V, D93N, N94S
# notes: VH/VL only
# B22: 370_F01 (antibody, V domains shown)
# VH: B1 VH with D30S, H35N, A49S, K58T
# VL: B1 VL with L30V, T31S, V33L, T51A, N94S
# notes: VH/VL only
# B23: 370_F02 (antibody, V domains shown)
# VH: B1 VH with H35N, K58T, S59G
# VL: B1 VL with T31S, V33L, T51V, A55H, N94S
# notes: VH/VL only
# B24: 370_F12 (antibody, V domains shown)
# VH: B1 VH with D30S, S31D, G33S, H35N, K58T, S59G
# VL: B1 VL with T31S, V33L, T51A, T52S, R54L, A55Q, N94S
# notes: VH/VL only
# B25: 370_G08 (antibody, V domains shown)
# VH: B1 VH with D30S, S31D, G33S, H35N, N50G, K58T, S59G
# VL: B1 VL with V33L, L47V, T51A, D93E, N94S
# notes: VH/VL only
# B26: 370_H04 (antibody, V domains shown)
# VH: B1 VH with D30S, G33S, H35N, A49S, K58T, S59G
# VL: B1 VL with T31S, T51A, N94L
# notes: VH/VL only
# B27: 370_H06 (antibody, V domains shown)
# VH: B1 VH with S31D, G33S, H35N, K58T, S59G
# VL: B1 VL with V33L, T51A, D93E, N94T
# notes: VH/VL only
# B28: 371_B01 (antibody, V domains shown)
# VH: B1 VH with G33S, H35N, A49S, G55S, K58T, S59G
# VL: B1 VL with T31S, T51A, R54L, N94L
# notes: VH/VL only
# B29: 371_C06 (antibody, V domains shown)
# VH: B1 VH with D30S, G33S, H35N, A49S, N50S, K58T
# VL: B1 VL with L30S, T31S, V33L, T51V, N94L
# notes: VH/VL only
# B30: 371_C07 (antibody, V domains shown)
# VH: B1 VH with H35N, A49S, K58T, S59G, H106A
# VL: B1 VL with T31S, V33L, T51A, R54L, N94T
# notes: VH/VL only
# B31: 371_E05 (antibody, V domains shown)
# VH: B1 VH with D30S, G33S, H35N, N50G, K58T
# VL: B1 VL with L30I, T31S, V33L, L47V, T51A, D93S, N94S
# notes: VH/VL only
# B32: 371_E08 (antibody, V domains shown)
# VH: B1 VH with D30S, G33S, H35N, A49S, G55S
# VL: B1 VL with L30V, T31S, L47V, T51A, A55H, N94L
# notes: VH/VL only
# B33: 371_E09 (antibody, V domains shown)
# VH: B1 VH with D30S, S31D, G33S, H35N, A49S, N50G, G55S, K58T
# VL: B1 VL with V33L, T51A, D93N, N94S
# notes: VH/VL only
# B34: 371_E12 (antibody, V domains shown)
# VH: B1 VH with G33S, H35N, A49S, N50G, G55S
# VL: B1 VL with T31S, V33L, T51A, R54L, N94T
# notes: VH/VL only
# B35: 371_F03 (antibody, V domains shown)
# VH: B1 VH with D30S, G33S, H35N, A49S, N50G, K58T
# VL: B1 VL with L30I, V33L, T51A, R54L, A55H
# notes: VH/VL only
# B36: 371_F09 (antibody, V domains shown)
# VH: B1 VH with D30S, G33S, H35N, N50G, K58T
# VL: B1 VL with V33L, T51A
# notes: VH/VL only
# Target: Mouse ACVR2A (mouse, UniProt P27038 20-135, limits assumed)
# Assay: ELISA
# Description: (§1) The binding of ACVR2A-specific monoclonal antibodies to human ACVR2A, mouse ACVR2A, biotinylated goat anti-human kappa light chain (positive control) and human Fc (negative control) were determined by ELISA.
# Further: test concentration or dose not given here.
# Chain of Mouse ACVR2A (P27038 20-135 limits assumed): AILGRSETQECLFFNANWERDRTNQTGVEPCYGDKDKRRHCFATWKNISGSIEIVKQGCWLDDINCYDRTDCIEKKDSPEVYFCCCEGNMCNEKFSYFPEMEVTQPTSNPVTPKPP
row,Binder,optical density [OD]
1,B1,2.65
2,B2,2.13
3,B3,2.77
4,B4,3.45
5,B5,3.13
6,B6,1.64
7,B7,1.23
8,B8,0.931
9,B9,3.38
10,B10,3.28
11,B11,3.29
12,B12,3.23
13,B13,3.42
14,B14,3.25
15,B15,3.41
16,B16,3.37
17,B17,1.38
18,B18,3.25

row,Binder,optical density [OD]
1,B19,2.53
2,B20,2.72
3,B21,2.77
4,B22,3.14
5,B23,2.89
6,B24,3.57
7,B25,3.33
8,B26,3.56
9,B27,3.39
10,B28,3.27
11,B29,3.01
12,B30,1.45
13,B31,3.18
14,B32,2.27
15,B33,2.28
16,B34,2.99
17,B35,1.3
18,B36,3.57

# Target: T1, Human ACVR2A (human, UniProt P27037 20-135, limits assumed)
# T1 construct: also called activin receptor, type II A
# Assay: ELISA
# Description: as §1
# T1 sequence (P27037 20-135 limits assumed): as the sequence (P27038 20-135 limits assumed) above, with R20K, I73V counted along it
row,Binder,optical density [OD]
1,B1,2.35
2,B2,1.95
3,B3,2.64
4,B4,3.43
5,B5,2.94
6,B6,1.41
7,B7,1.03
8,B8,0.796
9,B9,3.23
10,B10,3.04
11,B11,3.09
12,B12,3.16
13,B13,3.46
14,B14,3.13
15,B15,3.14
16,B16,3.35
17,B17,1.3
18,B18,3.13

row,Binder,optical density [OD]
1,B19,2.92
2,B20,2.57
3,B21,2.58
4,B22,3
5,B23,2.68
6,B24,3.55
7,B25,3.21
8,B26,3.48
9,B27,3.22
10,B28,3.26
11,B29,2.49
12,B30,1.39
13,B31,2.99
14,B32,2.11
15,B33,2.08
16,B34,3.09
17,B35,1.19
18,B36,3.37

# Target: T2, Goat anti-Human Kappa
# T2 construct: Positive control; also called biotinylated goat anti-human kappa light chain
# Assay: ELISA; positive control
# Description: as §1
row,Binder,optical density [OD]
1,B1,3.61
2,B2,3.51
3,B3,3.29
4,B4,3.74
5,B5,3.06
6,B6,1.9
7,B7,1.12
8,B8,3.46
9,B9,3.6
10,B10,3.31
11,B11,3.57
12,B12,3.56
13,B13,3.65
14,B14,3.35
15,B15,3.55
16,B16,3.3
17,B17,3.35
18,B18,3.58

row,Binder,optical density [OD]
1,B19,3.48
2,B20,3.4
3,B21,3.52
4,B22,3.67
5,B23,3.63
6,B24,3.64
7,B25,3.56
8,B26,3.62
9,B27,3.51
10,B28,3.58
11,B29,3.44
12,B30,3.36
13,B31,3.45
14,B32,2.64
15,B33,3.15
16,B34,3.62
17,B35,1.82
18,B36,3.6
